This is an account of results in patent publication EP4556018A1 (OSAKA UNIVERSITY, dated 2025).

Assay [1] deals with T1, HDAC1 of mouse Treg cells (mouse, UniProt O09106 1-482).
T1 construct: also called HDAC1 protein
As to the kind of experiment: immunoprecipitation of endogenous Foxp3 from Ikzf1-expressing mouse Treg cells, Simple Western.

The target in another assay is T2, Flag-IkΔE5 (Mus musculus, UniProt Q03267 1-517, limits assumed).
T2 construct: Forcedly expressed in HEK293T cells; also called ΔE5 variant; Ikzf1ΔE5; not shown: Flag tag
As to the kind of experiment: co-immunoprecipitation with anti-Flag-M2 antibody from HEK293T lysate, Western blot with anti-c-Myc. Background: A western blot detects proteins with antibodies after separation by electrophoresis.

T2 sequence (Q03267 other isoform, or with tags, fused parts or gaps mutant limits assumed): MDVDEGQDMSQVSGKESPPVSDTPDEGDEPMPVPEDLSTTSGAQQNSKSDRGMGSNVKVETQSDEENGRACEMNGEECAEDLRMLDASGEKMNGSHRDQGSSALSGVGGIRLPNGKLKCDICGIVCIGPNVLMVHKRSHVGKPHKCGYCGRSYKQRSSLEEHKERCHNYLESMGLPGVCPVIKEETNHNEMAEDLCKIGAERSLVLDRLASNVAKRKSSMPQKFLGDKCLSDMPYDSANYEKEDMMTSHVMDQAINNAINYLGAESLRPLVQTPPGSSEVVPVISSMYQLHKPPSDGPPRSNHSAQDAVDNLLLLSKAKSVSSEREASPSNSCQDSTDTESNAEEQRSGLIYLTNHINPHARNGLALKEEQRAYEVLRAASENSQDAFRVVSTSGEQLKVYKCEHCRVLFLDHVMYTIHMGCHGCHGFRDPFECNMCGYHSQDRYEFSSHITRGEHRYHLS
T1 sequence (O09106 whole entry): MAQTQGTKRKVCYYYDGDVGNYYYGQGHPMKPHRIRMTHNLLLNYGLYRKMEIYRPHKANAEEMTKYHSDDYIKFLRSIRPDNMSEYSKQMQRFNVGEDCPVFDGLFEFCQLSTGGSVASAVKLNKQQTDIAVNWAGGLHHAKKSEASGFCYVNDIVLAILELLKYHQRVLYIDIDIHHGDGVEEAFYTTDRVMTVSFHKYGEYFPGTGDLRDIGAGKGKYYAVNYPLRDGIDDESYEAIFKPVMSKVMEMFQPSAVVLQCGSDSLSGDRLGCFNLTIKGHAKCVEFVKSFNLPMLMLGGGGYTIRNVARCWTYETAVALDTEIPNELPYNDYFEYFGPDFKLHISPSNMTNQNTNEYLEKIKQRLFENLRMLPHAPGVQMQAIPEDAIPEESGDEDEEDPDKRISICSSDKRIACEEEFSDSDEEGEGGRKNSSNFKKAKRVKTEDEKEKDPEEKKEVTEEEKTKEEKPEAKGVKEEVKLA

B1: endogenous Foxp3 of mouse Treg cells (other, UniProt Q99JB6 1-429, looked up)
chain: MPNPRPAKPMAPSLALGPSPGVLPSWKTAPKGSELLGTRGSGGPFQGRDLRSGAHTSSSLNPLPPSQLQLPTVPLVMVAPSGARLGPSPHLQALLQDRPHFMHQLSTVDAHAQTPVLQVRPLDNPAMISLPPPSAATGVFSLKARPGLPPGINVASLEWVSREPALLCTFPRSGTPRKDSNLLAAPQGSYPLLANGVCKWPGCEKVFEEPEEFLKHCQADHLLDEKGKAQCLLQREVVQSLEQQLELEKEKLGAMQAHLAGKMALAKAPSVASMDKSSCCIVATSTQGSVLPAWSAPREAPDGGLFAVRRHLWGSHGNSSFPEFFHNMDYFKYHNMRPPFTYATLIRWAILEAPERQRTLNEIYHWFTRMFAYFRNHPATWKNAIRHNLSLHKCFVRVESEKGAVWTVDEFEFRKKRSQRPNKCSNPCP
notes: Immunoprecipitated with anti-Foxp3 antibody from Treg cell lysates
On to B1, for which the binding result in assay [1] is “binds”.

B2: Myc-Foxp3 (other, UniProt Q99JB6 1-429, looked up)
chain: B1 chain
notes: Forcedly expressed in HEK293T cells; not shown: Myc tag
Regarding B2, the binding result with Flag-IkΔE5 is reported as “no binding”.
